Assay [1] concerns the target Cyt2Aa2 protoxin (Bacillus thuringiensis subsp. darmstadiensis). Nature of the assay: SDS-PAGE of unheated sample with immunodetection.
The target in assay [2] is activated Cyt2Aa2 protein (chymotrypsin-activated) (Bacillus thuringiensis subsp. darmstadiensis). Nature of the assay: SDS-PAGE ladder pattern of unheated sample with immunodetection.

In assay [1], Cyt2Aa2 protoxin (natural protein) returned a stoichiometry N of 2.

In turn, “activated Cyt2Aa2 protein (chymotrypsin-activated) (natural protein)” showed a stoichiometry N in assay [2] above 10.

The stoichiometry N is a count of units in the complex or per binding partner.

The values are drawn from PMC11951046.
